Assays:
[1] = target: histidine-tagged human C5a (human) (UniProt P01031); assay: SPR; Biacore X100; His-C5a captured on a Ni-activated NTA chip at 25 RU; S512A-ScpA or S512A-79ΔPro flowed at 5.625-90 nM, 30 uL/min, association 180 s, dissociation 200 s; 10 mM HEPES-KOH pH 7.5, 150 mM NaCl, 0.005% Tween 20, 50 uM EDTA; global fit, Langmuir model; triplicates
[2] = target: histidine-tagged human C5a (human) (UniProt P01031); assay: SPR; Biacore X100; His-C5a captured on a Ni-activated NTA chip at 25 RU; S512A-ScpA or S512A-79ΔPro flowed at 5.625-90 nM, 30 uL/min, association 180 s, dissociation 200 s; 10 mM HEPES-KOH pH 7.5, 150 mM NaCl, 0.005% Tween 20, 50 uM EDTA; global fit with a Langmuir model; triplicates

Substance | Kd [1] [nM] | Kd [2] [nM] | koff [2] [s⁻¹] | kon [2] [M⁻¹ s⁻¹]
S512A-79ΔPro (active site mutated, propeptide truncated ScpA, amino acids 79-1032) (from UniProt P15926 79-1032) (enzyme) | 25 |  |  | 
S512A-79ΔPro, active site mutated propeptide-truncated ScpA (amino acids 79-1032) (from UniProt P15926 79-1032) (enzyme) |  | 35 | 0.00467 | 187000
S512A-ScpA (active site mutated Streptococcus pyogenes C5a peptidase, amino acids 32-1032) (from UniProt P15926 32-1032) (enzyme) | 35 |  |  | 
S512A-ScpA, active site mutated Streptococcus pyogenes C5a peptidase (amino acids 32-1032) (from UniProt P15926 32-1032) |  | 25 |  | 
S512A-ScpA, active site mutated Streptococcus pyogenes C5a peptidase (amino acids 32-1032) (from UniProt P15926 32-1032) (enzyme) |  |  | 0.00638 | 182000

— paper PMC10410607
